test: yeast display, Sf9 membrane polyspecificity reagent, FACS + sequencing; frameworks hold sequencing errors
Summary of the method: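 Polyreactivity labels are assigned by the sorting gate from which each nanobody was recovered. The gates were low and high (top ~1%), set on anti-HA fluorescence for expression and streptavidin fluorescence for reagent binding. Before sorting, galactose-induced (36–48 hours) yeast display cells were stained for 1 hour at 4 °C with 10% biotinylated, detergent-solubilized Sf9 membrane reagent.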

Sequence	polyreactivity (PSR sort gate)
QVQLQESGGGLVQAGGTITLGYDMGWYRQAPGKEREFVAGIDTGAITYYADSVKGRFTNSRDNAKNTVYLQMNSLKPEDTAVYYCAAIQTHTYAHSYWGQGTQVTVSS	high polyreactivity
QVQLQESGGGLVQAGGTLRLSCAASGSFSADEDMGWYRQSQGKEREFVAGISVGGNTNYADSVKGRFTISRENAKKTVYLKINCLKPEDTAVYYCRVRLRTSYLLDYWGQGTQVTVSS	high polyreactivity
QVQLQESGGGLVQAGGTLRLSCAASGTISFTRDMGWYRQAPGKEREFVASIDRGASTYYADSVKGRFTISRDNAKNTVYLQMNSLKPEDNAVYYRAVIAPFYSSFAYWGQGTQVTVSS	high polyreactivity
QVQLQESGGGLVQAGVSLRLSGAASGYISTFSSEMGWYRQAPVKERELVASIAPGCTTSYADSVKGRFTISRDNAKNTVYLQMNSLKPEDTAVYYCAVDYTVPASFGYWGQGTQVTVSS	high polyreactivity
QVQLQESGGGLVQARGSLRLSCAASGSISRYYDMGWYRQAPCKESEFVAGISGGAITYYADSVKGRFTISRDNAKNTVYLQMNSLKPEDTAVYYCAADTGVYKYHSYWGQVTQVTVSS	low polyreactivity
QVQLQESGGGLVQASGSIFHEPNMGWYRQAPGKERELVAGISSGANTYYADSVKGRFTISRDNAKNTVYLQMNSVKPEDTAVYHCAVVVHLYTDLRNWGQDTQVTVSS	high polyreactivity
QVQLQESGGGLVQASGSIFHEPTMGWYRQAPGKERELVAGISSGANTYYADSGKGRCTISRDNAKNTVYLQMNSLKPEDTAVYYCNARRRYSLTMDYWGHGTQVTVSS	high polyreactivity
QVQLQESGGGLVQASGSLRLSCAASGNIFPDYFMGWYRLATGKEREFVANITGGSTTNYADSVKGRFTISRDNANNTVYLQIYSLKPEDTAVYYCAVYFGTVQHAYWGQGTQVTVSS	high polyreactivity
QVQLQESGGGLVQSGGSLRLSCAASGFIFARNYMGWYRQAPGKERELVAGIGVGASTNYADSVKGRFTISRDNAKNTVYLQMNSLKPEDTAVYYCNARTGTTWQGYEYDYWGQGTQVTVSS	low polyreactivity
QVQLQESGGGLVQVGGSLRLSFAASGTIFIYGFLGWNLQAPGKERELVASINLGGITNYADSVKGRFTISRDNAKNTVYLQMLSLKPEDTAVYYCAAYVVTGQNYGYWGQGTQVTVSS	low polyreactivity
QVQLQESGGGLVQVGGSQRLSCAASGNIFYNYAMGWYRHAQGKEREFDATINHGTSINYADSVKGRFTISRDNAKNSVYLQMNSLKPEDTAVYYCAADLSWTDNLFYWGQGTQVTVSS	low polyreactivity
QVQLQESGGGMVQAGGCLRLSCAASVTIFDPDYMGWYHQAPGKERELVASISLGRITYYADSVKGRFTINRDNAKNTVFLQMISLKPEDTAVYYCAAVTGLFYHPFYKYNYWGQGTQVTVSS	high polyreactivity
QVQLQESGGGMVQAGGSLRLSCASSGYISWADYMGWSRQAPGKERELVDGIGYGSTTYYADSVKGRFNISRDNAKNTAYLQMISLKPEDTAVYYCAVGWYSVTAYNYWGQGTQVTVSS	low polyreactivity
QVQLQESGGGMVQAGGSLRLSSAASGYISWADSMGWYRQAPGKERELVAGIGYGSTTYYADSVKGRFTISRDNAKNTAYLQMNSLKPEDTAVYYCSVGWYRDTAYKYWGQGTQVTVRS	low polyreactivity
QVQLQESGGGQVHAGGSLRLSCAASGTIFLYAYMGWYRQAPGKERELVAAIDVGTTTNYADSVKGRFTISRDNAKNTVYLQMNSLKPEDTAVYYCAANLGYLDDLGYWGQGTQETVSS	low polyreactivity
QVQLQESGGGQVQAGGSLRLSCAASGYISTHYFMGWYRQATGKDREFVAGISNGSITNYADSVKGRFTISRDNARNTVYLQMNSLKPEDTAVYYGAAYEWTYVRFGYWGQGTQVTVSG	high polyreactivity
QVQLQESGGLVQAGGLRLSCAASGSVSYQEAMGWYRQAPGKERELVATISFGAKTNYADSVKGRFTISRDNAKNTVYLHINSLNPEDTAVYYCAAESLFDDYYGYWGQGTQVTVSS	low polyreactivity
QVQLQESGGRLVQASGSIFHEPNMGWHRQAPGKERELVATISDGAITNYADSVKGRFTISRDNAKNTVYLQMNSLIPEDTAVYYCAATGGLNGALSRLEYWGQGTQVSVSS	high polyreactivity
QVQLQESGGRLVQSGGSLRPSCAASGSISDGVPMGWNSQAPGDERELVATTVLGATTNNADSVKGRFTISRGNAKNTVYLQMNSLKPEETAVYYCAAPLRYDKGFSYWGQGTQVTVSS	low polyreactivity
QVQLQESGSGLVQAGGSLRLSCAASGNISHYNDMGWYRQAPGKEREPVATINSGSITYYADSVKGRFTISRDNAKYTVYLQMNSLKPEDTAVYYCAVKQHGYFYLDYWGQGTQVTVSS	high polyreactivity
QVQLQESGSGQVQAGGSLRLSCAASGAIFPAYLMGWYRQAPGKERELVAGISYGSITYCADSVKGRFNISRDNAKNTVYLQMNSLKPEDTAVYYCAVWRPGGDEYYYWGQGTQVTVSS	low polyreactivity

Sequence	polyreactivity (PSR sort gate)
QVQLQESRGGLVQAGGSLRLGFAASGNISDAGNKGWYRQAPGKEREFVAAIAAGSNTNYADSVKGRFTISRDNAKNTVYLQMNSLKPEDTAVFYCAVAYYARLQYEYWGQGTQVTVKS	low polyreactivity
QVQLQESSGGLVQAGGSLRMSCAASGTIFHFHIMGWYRQAPGKVREFVAAISYGTSTYYADSVKGRFTISRDNAKNTVYLLMNRQKPEDTEVYYCAVYEYLEVYCWYWGQGTQGTVSS	low polyreactivity
QVQLQESVGGLVQAGGSLRLSCAASGNIFPTDRMGWYRQAPGKELEFVATISHGGSTNYADSVKGRFTISRDNAKNTVYLQMNSLKPEDTAVFYCAVWSLGRWRHYYWGQGTQVTVSS	low polyreactivity
QVQLQESVGGLVQAGGSLRLSCAASGYISSWYPMGWYRQAPGKEREFVATIAPVATTYYADSVKGRFTISRDYAKNSVYLQMNSLKPEDTAVYYCAAGPENNDFYSYWGQGTQVTVSS	low polyreactivity
QVQLQESVGGLVQAGRSLRLSCAASGYISHADEMGWYRQAPGKEHELVASISNGGSTNYADSVKGRFTISRDNANNTVYLQMNSLKSVDTAVYFCAAWTGQVDIHYYWGQGTQVTVSS	low polyreactivity
QVQLQESVGSLVQAGGSLRLSCAASGSISILQYMGWYRQAHGKELELVAGINWGATTYYADSVKGRLTTSRDYAKKTVYLQMNSLKPEDTAVYYCAVPTFYSYPVLYWGQGTQVTVSS	low polyreactivity
QVQLQESVVCLVQALGSLRLSCAASGNISDYYDMGWYGHAPGKERKFVAGIDFGAITNYADSVKGRFTISRDNAKNTEYMQMSSLKPEDTAVYYCAAGVYDWYAYDYWGQGTQVTVSS	high polyreactivity
QVQLQETRGGLDQAGDSLRLRCAASVSTLPVYTIARYRKAAVKEREFVAANTYTGGRTYYSDSVKGRFTISRDNAKNSVYLQMKSLKPDDTAVYYCAAEYGTYFVRYFAGASYRYGYWGQGTQVTVSS	low polyreactivity
QVQLRESGAGGRQPAPELRGERQYFYWSADGLVSQAPGKEREFVAGIDRGTITNYADSVRGRFTISRDNAKKTVYLQMNSLKPEDTAVYYCAVPAYGDPSSYYWGQGTHVTVSS	high polyreactivity
QVQLVASGGGLVQAGGSLRLSCAASGGTFFYNAKGWYRQAPGKERELVAAINGGTSTNYADSVKGRFTISRDNAKNTDYLQRNSLKPEDTAVYYCAAVYRRLGRSDWYDYWGQGTQVTVSS	low polyreactivity
QVQLVASGGGLVQAGGSLRLSCAASGRIFDAYAMGWYRQAPGKERELVAAIDFSAGSTYYADSVKGRFTISRDNAQNTVYLQMNSLKPEDTAVYYCATRLGVLYDCWGQGTQVTVSS	low polyreactivity
QVQLVASGGGLVQAGGSLRLSCAASGSNFAYNGMGWYRLAPGKERELVAAMSWNGGTTYYADSVKGRFTISRDKAKKNVYLQRNSLKPEDTAVYYCATDSYYFREYDYWGQGTQVTVSS	low polyreactivity
QVQLVASGGGLVQAGGSLRLTCAASGSIFYAYAMGWSRQAPGKERELVASINSGGNTYYADSVKGRFTISRDNAKNTDYLQMNSLKAEATAVYYCAVDSKDNNDHWGQGTQVTVSS	low polyreactivity
QVQLVASGGGLVQSGGSLRLSCAASGTTFGYYAMGWYIQAPGKERELVAAITKSGGSTFYAESVKGRFTISRDNAKNTVYLQMNSLKPEDTAVYYCAARYKGQYYRQGRHDYWGQGTQVTVSS	high polyreactivity
QVQLVDSAGVLVQAGGSLSLICAASGRTYGIYAMGWYRQAPGKERELVADISSDASTSYAYSVKGRFTISRDNAKNTVYLQMNSLKAEDTAVYYCAADPGPYYDWGYYYWGQGTQVTVSS	low polyreactivity
QVQLVDSGGALVQAGGSLRLSCAASGFIFRDNAMGWYRQAPGKESELVAAISSRGGSTYYADSVKGRFTISRDYAKNSVYLQMNRLKPEDTAVYYCAIRPYKSRVQMDCWGQGTQVTVSS	high polyreactivity
QVQLVDSGGALVQAGGSLRLSCAASGPTFYTKTMGSYRQAPGKERELVAVISSGGGSTYYSDSVKGRFTISRDNAKNTVYLQMNSLKPEDTAVYYCAKRRGGQGNYWGQGPQVTVSS	high polyreactivity
QVQLVDSGGALVQAGGSLSLSCAASGGKYDSYAMGWYRQAPGKERELVASISRSGSTNYADSVKGRFTISRDNAMNTVYLQMNSLNPEDTAVYYCAASVRGIRYDYWGQGTQVTVSS	low polyreactivity
QVQLVDSGGCLVQAGGSLRLSCAASGFIFNFYAMGWYRQAPRQQREFVAAISTRGGSTYYADSVKGRFTISRDNAKNTVFLQMKSLKPEDTAVYYCAARRFWGSRRLDYWGQCTQVTVSS	high polyreactivity
QVQLVDSGGDLVQAGGSLSLSCAASGRIFVYYAMGWYRQAPGTERELVAVITSVGSTYYADSVKGRFTISRDNAKNTVYLQMNSLKPEDTAVYYCAAEWEYYGFDYWGQGTQVTVSS	low polyreactivity

— the nanobody polyreactivity screen of Harvey et al. (2022)
